In PMC4609494:

Legend:
[1] = molecular target: TNF receptor-1 (TNFR-1), rat (rat) (UniProt P22934)
[2] = molecular target: TNF receptor-1 (TNFR-1), rat (rat) (UniProt P22934); remark: listed apart in the source
[3] = molecular target: TNF receptor-2 (TNFR-2), rat (rat) (UniProt Q80WY6)
[4] = molecular target: TNF receptor-2 (TNFR-2), rat (rat) (UniProt Q80WY6); remark: listed apart in the source

Sequence of UniProt P22934 (P22934 30-461): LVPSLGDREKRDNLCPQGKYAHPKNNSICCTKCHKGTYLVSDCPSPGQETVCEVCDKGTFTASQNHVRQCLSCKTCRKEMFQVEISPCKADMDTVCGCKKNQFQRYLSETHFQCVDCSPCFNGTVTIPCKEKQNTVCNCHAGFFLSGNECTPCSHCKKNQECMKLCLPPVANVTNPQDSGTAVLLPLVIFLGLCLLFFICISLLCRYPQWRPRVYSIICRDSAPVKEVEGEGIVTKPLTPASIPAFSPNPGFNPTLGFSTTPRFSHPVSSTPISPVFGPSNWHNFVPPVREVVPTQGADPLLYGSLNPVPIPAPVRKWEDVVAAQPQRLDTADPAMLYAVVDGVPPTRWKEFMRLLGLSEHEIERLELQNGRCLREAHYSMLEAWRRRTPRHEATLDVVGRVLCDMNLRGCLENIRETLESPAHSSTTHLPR
Sequence of UniProt Q80WY6 (Q80WY6 23-474): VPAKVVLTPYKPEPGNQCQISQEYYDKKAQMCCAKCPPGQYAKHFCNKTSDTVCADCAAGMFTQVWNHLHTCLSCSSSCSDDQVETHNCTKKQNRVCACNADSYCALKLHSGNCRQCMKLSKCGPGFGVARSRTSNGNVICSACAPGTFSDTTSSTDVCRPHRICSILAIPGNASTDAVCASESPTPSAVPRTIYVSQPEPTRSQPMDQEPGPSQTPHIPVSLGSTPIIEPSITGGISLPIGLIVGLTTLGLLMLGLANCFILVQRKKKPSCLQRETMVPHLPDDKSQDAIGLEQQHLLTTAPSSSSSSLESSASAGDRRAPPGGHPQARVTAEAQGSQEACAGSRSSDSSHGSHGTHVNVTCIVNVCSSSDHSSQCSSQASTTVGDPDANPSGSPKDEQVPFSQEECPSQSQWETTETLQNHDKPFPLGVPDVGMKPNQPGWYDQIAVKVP

Substance | increase of the voltage-gated sodium channel current I Na(V) in small rat DRG neurons, whole-cell patch clamp, repetitive depolarization to 0 mV, R32W 10 pg (dose-dependent over 1-100 pg) [1] [%] | increase of the TTX-resistant NaV1.8 current I NaV(1.8) in small rat DRG neurons, whole-cell patch clamp, repetitive depolarization to 0 mV, R32W 100 pg, 300 s after treatment [2] [%] | increase of the voltage-gated sodium channel current I Na(V) in small rat DRG neurons, whole-cell patch clamp, repetitive depolarization to 0 mV, D145 10 pg (dose-dependent over 1-100 pg) [3] [%] | increase of the TTX-resistant NaV1.8 current I NaV(1.8) in small rat DRG neurons, whole-cell patch clamp, repetitive depolarization to 0 mV, D145 100 pg, 300 s after treatment [4] [%]
TNF mutant protein R32W (R32W/S86T), selective TNFR-1 agonist (ligand) | 27.2 | 18.9 |  | 
TNF mutant protein D145 (D143N/A145R), selective TNFR-2 agonist (ligand) |  |  | 44.9 | 14.5
